Test results published in patent US20200209238A1, “OPTIMIZING DIAGNOSTICS FOR GALACTOFURANOSE CONTAINING ANTIGENS” (The Johns Hopkins University, priority 2017, published 2020).

B1: mAb476: galF-specific monoclonal antibody, VH domain of SEQ ID NO:9 and VL domain of SEQ ID NO:10 (antibody, V domains shown)
VH: EVQLEESGGGLVQPGGSLRLSCATSGFTFSDFYMEWVRQTPGERLEWIAASRNKANDYTAEYSASVKGRFTVFRDTSQNILYLQMNALRAEDTAAYYCARDADYGKTFSWYFDVWGAGTTVTVSS
VL: DIVMTQDELSNPVTSGESVHISCRSSKSLLYKDGKTYLNWFLQRPGQSPQLLIYLMSTRASGVSDRFSGSGSGTDFTLEISRVKAEDVGVYYCQQLVEYPLTFGAGTKLELK
B2: rINTL-1: Recombinant human IntL-1 (intelectin-1), FLAG-tagged in the cell binding test (protein)
chain: TDEANTYFKEWTCSSSPSLPRSCKEIKDECPSAFDGLYFLRTENGVIYQTFCDMTSGGGGWTLVASVHENDMRGKCTVGDRWSSQQGSKAVYPEGDGNWANYNTFGSAEAATSDDYKNPGYYDIQAKDLGIWHVPNKSPMQHWRNSSLLRYRTDTGFLQTLGHNLFGIYQKYPVKYGEGKCWTDNGPVIPVVYDFGDAQKTASYYSPYGQREFTAGFVQFRVFNNERAANALCAGMRVTGCNTEHHCIGGGGYFPEASPQQCGDFSGFDWSGYGTHVGYSSSREITEAAVLLFYR

Legend:
[1] = test system: Aspergillus fumigatus conidia and hyphae; test: rIntL-1 binding to conidia and hyphae, fluorescence microscopy
Protocol: Conidia from Aspergillus fumigatus were counted and adjusted to 10^6/mL in Sabouraud's Dextrose broth, and grown for 6 hours at 37° C. to germinate (forming hyphae). The collection of swollen, germinating conidia and growing hyphae from already-germinated conidia were killed with heat at 90° C. for 1 h. The fungal material (killed conidia and hyphae) was pelleted by centrifugation, resuspended in IntL-ELISA blocking buffer, and incubated with 10^−7 M rIntL-1 (FLAG-tagged) in presence of 10 μg/mL of either MAb476 or an irrelevant, isotype control antibody mouse IgM for 2 h at 30° C. Following washes with IntL-ELISA buffer, the material was resuspended in IntL-ELISA blocking buffer and incubated with a 1:50 diluted anti-FLAG tag antibody conjugated to the red fluorochrome phycoerythrin (PE). Again, after washes, the stained material was resuspended in IntL-ELISA blocking buffer, transferred to chamber slides and observed under a fluorescent microscope. The inventors performed experiments wherein Aspergillus ethanol precipitate and whole cells (conidia and hyphae) were exposed to rIntL-1 and then a sandwich assay using Rabbit polyclonal antibodies to INTL-1 and goat anti-rabbit antibodies with a fluorescent ligand were performed in buffer comprising 10 mM CaCl2). […] Thus, IntL-1 could be the competitive agent which is interfering with the inventors' antibodies to galF.

[2] = Western blot of urine with mAb476; format: binding, human
Protocol: Studies were performed using urine collected from control patients (pooled) and patient who had Aspergillus infection (VU7). The samples were run in a reducing SDS polyacrylamide gel electrophoresis (PAGE), and the resolved proteins were transferred to a nylon membrane for performing a Western Blot. Some samples used concentrated urine (denoted by “c”) using an Amicon concentrator or were pretreated by desalting columns (denoted by “ds”).

[3] = Immunoprecipitation of urine with mAb476-coated dynabeads; format: binding, human; conditions: normal urine
Protocol: Studies were performed to identify the proteins that are bound by mAb476 after immunoprecipitation, using mass spectrophotometry. To enrich sample detection of moieties specifically binding to mAb476, urines were incubated with superparamagnetic dynabeads coated with mAb476 and a mouse control antibody. mAb476 reactive material was eluted with 50 mM glycine (pH 2.5-3.0). […] Reactivity to mAb476 eluates was confirmed by sandwich ELISA. Eluates were then run on SDS-PAGE gels to check for band patterns, and in-solution mass spectrometry analysis was performed. Analysis detected the microbial antigen CelA/Aspf7 (a galF-containing 0-glycan).

[4] = test system: Aspergillus ethanol precipitate (EP); test: rIntL-1 binding to Aspergillus ethanol precipitate, ELISA; conditions: buffer with 10 mM CaCl2
Protocol: Wells of a microtiter plate were coated with 10 μg/ml of EP antigen and blocked with a blocking buffer containing 0.1% BSA in IntL-ELISA buffer (20 mM HEPES pH7.4; 150 mM NaCl; 10 mM CaCl2); 0.1% Tween-20. Ref: Wesener et al. (2015) Nature Structural & Molecular Biology, 22(8):603). Recombinant human IntL-1 (rintL-1) was serially diluted tenfold in blocking buffer starting at 10^−6 M, and incubated on the EP-coated plate for 2 h at 30° C., followed by washes with IntL-ELISA buffer. The bound IntL was detected by an anti-omentin Rabbit IgG ab (Millipore) diluted 1:1000 in blocking buffer and incubated at 30° C. for 2 h. Wells were again washed and incubated with a goat anti-Rabbit IgG-AP at 1:1000 for 1 h at 30° C. Following another wash, the color was developed by AP substrate for 30 minutes at 37° C.
Conidia from Aspergillus fumigatus were counted and adjusted to 10^6/mL in Sabouraud's Dextrose broth, and grown for 6 hours at 37° C. to germinate (forming hyphae). The collection of swollen, germinating conidia and growing hyphae from already-germinated conidia were killed with heat at 90° C. for 1 h. The fungal material (killed conidia and hyphae) was pelleted by centrifugation, resuspended in IntL-ELISA blocking buffer, and incubated with 10^−7 M rIntL-1 (FLAG-tagged) in presence of 10 μg/mL of either MAb476 or an irrelevant, isotype control antibody mouse IgM for 2 h at 30° C. […]

| Molecule | effect on cellular rINTL-1 binding (galF recognition) ([1]; 10 μg/mL antibody with 10^−7 M rIntL-1) | reactive bands in Western blot ([2]; healthy human pooled urine) | molecular weight of reactive bands in Western blot ([2]; urine from patients with aspergillosis) [kDa] | binding in immunoprecipitation [3] | binding to Aspergillus ethanol precipitate [4] | binding to whole cells (conidia & hyphae) ([1]; 10^−7 M FLAG-tagged rIntL-1, heat-killed Af293 conidia and hyphae) |
| --- | --- | --- | --- | --- | --- | --- |
| B1 | GalF recognition is reduced | no reactive bands | 26 to 35 | No mAb476 binding occurred | – | – |
| B2 | – | – | – | – | bound Aspergillus ethanol precipitate with high affinity | binds to whole cells |
